From patent publication US20230012273A1 (Boehringer Ingelheim, published 2023) come the findings set out here.

To fix the notation:
T1: cynomolgus SIRPβ1v3 (XP_005568593) extracellular domain + His-tag (cynomolgus monkey)
T1 construct: SPR analyte; also called Cyno SIRPβ1v3 XP_005568593; cynoSIRPβ1v3; not shown: His-tag
T1 chain: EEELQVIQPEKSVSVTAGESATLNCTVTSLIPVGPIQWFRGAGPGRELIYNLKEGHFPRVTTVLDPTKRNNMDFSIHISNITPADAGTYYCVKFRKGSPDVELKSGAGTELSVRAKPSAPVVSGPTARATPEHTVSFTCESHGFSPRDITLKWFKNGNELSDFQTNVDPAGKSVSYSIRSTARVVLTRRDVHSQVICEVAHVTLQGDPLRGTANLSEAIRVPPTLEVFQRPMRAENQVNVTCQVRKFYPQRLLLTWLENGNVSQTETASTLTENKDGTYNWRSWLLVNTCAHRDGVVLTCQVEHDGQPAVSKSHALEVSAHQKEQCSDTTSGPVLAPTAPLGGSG

T2: cynomolgus SIRPβ1 (XP_005568598) extracellular domain + His-tag (cynomolgus monkey)
T2 construct: SPR analyte; also called Cyno SIRPβ1 XP_005568598; cynoSIRPβ1; not shown: His-tag
T2 chain: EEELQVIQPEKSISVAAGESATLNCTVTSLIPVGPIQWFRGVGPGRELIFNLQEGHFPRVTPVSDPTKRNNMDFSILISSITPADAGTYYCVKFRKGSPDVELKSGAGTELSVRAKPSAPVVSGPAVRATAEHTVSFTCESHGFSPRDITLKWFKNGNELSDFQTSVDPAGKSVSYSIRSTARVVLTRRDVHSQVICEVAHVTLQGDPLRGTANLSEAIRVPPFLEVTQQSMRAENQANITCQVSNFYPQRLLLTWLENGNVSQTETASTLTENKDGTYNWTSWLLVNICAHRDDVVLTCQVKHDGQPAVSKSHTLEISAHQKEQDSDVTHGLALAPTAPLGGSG

T3: cynomolgus SIRPα (EGM_02252) extracellular domain + His-tag (cynomolgus monkey)
T3 construct: SPR analyte; also called CySIRPα EGM_02252; cynoSIRPα; not shown: His-tag
T3 chain: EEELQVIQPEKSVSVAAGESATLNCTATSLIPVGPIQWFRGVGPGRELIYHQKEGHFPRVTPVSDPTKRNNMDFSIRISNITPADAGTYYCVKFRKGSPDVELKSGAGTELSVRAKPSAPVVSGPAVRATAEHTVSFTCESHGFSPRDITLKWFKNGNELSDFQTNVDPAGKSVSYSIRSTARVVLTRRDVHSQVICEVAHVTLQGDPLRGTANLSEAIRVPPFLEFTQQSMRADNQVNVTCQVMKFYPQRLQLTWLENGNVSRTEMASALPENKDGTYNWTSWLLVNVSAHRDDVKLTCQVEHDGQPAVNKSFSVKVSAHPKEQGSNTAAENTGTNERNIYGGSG

T4: cynomolgus SIRPγ (XP_005568591) extracellular domain + His-tag (cynomolgus monkey, UniProt Q9P1W8 29-359 (human entry))
T4 construct: SPR analyte; also called Cyno SIRPγ XP_005568591; cynoSIRPγ; not shown: His-tag
T4 chain: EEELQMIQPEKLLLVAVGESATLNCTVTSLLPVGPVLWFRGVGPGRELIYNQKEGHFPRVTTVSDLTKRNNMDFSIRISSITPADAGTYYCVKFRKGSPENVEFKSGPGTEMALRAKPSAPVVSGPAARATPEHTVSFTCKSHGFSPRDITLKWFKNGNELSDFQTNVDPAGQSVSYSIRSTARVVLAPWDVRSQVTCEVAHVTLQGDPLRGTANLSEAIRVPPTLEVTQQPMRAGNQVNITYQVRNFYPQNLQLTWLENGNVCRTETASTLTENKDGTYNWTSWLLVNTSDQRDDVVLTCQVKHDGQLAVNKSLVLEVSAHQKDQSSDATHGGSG

B1: Antibody E1 (antibody, human IgG1, kappa, L234A L235A, V domains shown)
VH: QVQLQESGPGLVRPSETLSLTCTVSGGSIRNYYWSWIRQPPGKGLEWIGFIYYNGRTFYNPSLKSRVTISLDMSINQFSLKMTSVTAADTAVYYCARVRAYSGIGLDGTDVWGQGTTVTVSS
VL: DIVMTQSPLSLPVTPGEPASISCKSSQSLLYSNGYAYLDWYLQRPGQSPQLLIYQGSNRASGVPDRFSGSGSGTDFTLKISRVEAEDVGVFYCMQALQTPLTFGGGTKVEIKR
B2: Antibody E6 (antibody, human IgG1, kappa, L234A L235A, V domains shown)
VH: B1 VH with M73K, I75K
VL: B1 VL with Q55L, F91Y
B3: Antibody E5 (antibody, human IgG1, kappa, L234A L235A, V domains shown)
VH: B1 VH with M73K, I75K
VL: B1 VL
B4: Antibody E3 (antibody, human IgG1, kappa, L234A L235A, V domains shown)
VH: B1 VH with I75K
VL: B1 VL
B5: Antibody E2 (antibody, human IgG1, kappa, L234A L235A, V domains shown)
VH: B1 VH
VL: B1 VL with Q55L, F91Y
B6: Antibody E10 (antibody, human IgG1, kappa, L234A L235A, V domains shown)
VH: B1 VH with M73T, I75K
VL: B1 VL with Q55L, F91Y
B7: Antibody E3 (antibody, human IgG1, kappa, L234A L235A, V domains shown)
VH: B1 VH with I75K
VL: B1 VL
B8: Antibody E4 (antibody, human IgG1, kappa, L234A L235A, V domains shown)
VH: B1 VH with I75K
VL: B1 VL with Q55L, F91Y
B9: Antibody E1 (antibody, human IgG1, kappa, L234A L235A, V domains shown)
VH: B1 VH
VL: B1 VL
B10: Antibody E11 (antibody, human IgG1, kappa, L234A L235A, V domains shown)
VH: B1 VH with I48M, Y53D, I75M
VL: B1 VL with Q55L, F91Y
B11: Antibody E16 (antibody, human IgG1, kappa, L234A L235A, V domains shown)
VH: B1 VH with M73T, I75K
VL: B1 VL with G34A, A36N, Q55L, F91Y
B12: Antibody E (antibody, human IgG1, kappa, L234A L235A)
heavy: not shown
light: DIVMTQSPLSLPVTPGEPASISCKSSQSLLYSNGYNYLDWYLQRPGQSPQLLIYLGSNRASGVPDRFSGSGSGTDFTLKISRVEAEDVGVFYCMQALQTPLTFGGGTKVEIKRTVAAPSVFIFPPSDEQLKSGTASVVCLLNNFYPREAKVQWKVDNALQSGNSQESVTEQDSKDSTYSLSSTLTLSKADYEKHKVYACEVTHQGLSSPVTKSFNRGEC

Positions count from the first letter of the chain named.

T6 sequence (P78324 other isoform, or with tags, fused parts or gaps): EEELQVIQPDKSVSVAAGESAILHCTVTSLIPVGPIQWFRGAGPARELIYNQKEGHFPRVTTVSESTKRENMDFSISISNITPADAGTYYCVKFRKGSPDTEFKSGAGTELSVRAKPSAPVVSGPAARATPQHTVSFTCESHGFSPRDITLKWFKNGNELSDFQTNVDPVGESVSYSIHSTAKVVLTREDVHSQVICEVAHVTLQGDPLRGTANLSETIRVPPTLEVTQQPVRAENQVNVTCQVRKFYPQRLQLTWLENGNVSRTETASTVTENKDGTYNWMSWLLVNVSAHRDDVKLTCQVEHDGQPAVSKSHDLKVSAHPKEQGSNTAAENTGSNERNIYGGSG
T5 sequence (Q9P1W8 29-360): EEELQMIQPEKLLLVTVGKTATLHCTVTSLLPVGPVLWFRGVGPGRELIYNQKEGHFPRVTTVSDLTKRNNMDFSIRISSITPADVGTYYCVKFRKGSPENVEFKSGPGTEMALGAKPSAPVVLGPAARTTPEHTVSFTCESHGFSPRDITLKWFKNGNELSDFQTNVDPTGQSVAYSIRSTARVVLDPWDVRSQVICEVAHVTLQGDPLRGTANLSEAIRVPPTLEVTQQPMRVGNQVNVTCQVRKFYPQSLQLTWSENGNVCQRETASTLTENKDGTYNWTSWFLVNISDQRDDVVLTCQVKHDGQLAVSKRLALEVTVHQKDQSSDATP
T8 sequence (P78324 other isoform, or with tags, fused parts or gaps): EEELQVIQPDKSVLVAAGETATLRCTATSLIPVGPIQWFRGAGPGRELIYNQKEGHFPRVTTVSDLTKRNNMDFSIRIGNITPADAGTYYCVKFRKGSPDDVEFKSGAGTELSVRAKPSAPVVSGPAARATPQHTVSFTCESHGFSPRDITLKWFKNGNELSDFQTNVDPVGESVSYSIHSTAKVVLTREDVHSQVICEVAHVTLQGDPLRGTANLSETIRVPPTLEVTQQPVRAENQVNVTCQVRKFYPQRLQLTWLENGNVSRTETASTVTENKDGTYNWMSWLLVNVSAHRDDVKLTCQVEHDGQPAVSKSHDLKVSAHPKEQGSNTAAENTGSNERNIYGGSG

The first experiment deals with T1, cynomolgus SIRPβ1v3 (XP_005568593) …. Briefly: SPR, antibody captured, ECD-His analyte. As to the method:
(§1) The binding affinity of anti-SIRPα antibodies to the various SIRPα analytes is determined by surface plasmon resonance (SPR) using a ProteOn XPR36 (Bio-Rad). The running buffer for this experiment and all dilutions (except where stated) are done in 1×HBS-EP+. […] The sensorchip is deactivated with 1M ethanolamine HCl for 420 sec at a flowrate of 10 μl/min.
(§2) The analyte is injected over the captured antibody for 300 sec at a flowrate of 30 μl/min. The dissociation is done for 600 sec. Two-fold serial dilutions of each SIRP protein (Extracellular Domain+His-Tag) are injected as analyte with the highest concentrations indicated in table 36 below.
Usually Kd stands for the free concentration of one partner at which half of the binding sites on the other are occupied at equilibrium, for simple one-to-one binding. Turning to B1, the Kd was determined as 10.8 nM.
B2: the Kd amounted to 23.9 nM.
B3: the Kd turned out to be 22.6 nM.
The same measure, in the same setting: next, B4: 10.7 nM.
In the case of B5, the Kd is 12.4 nM.

The next experiment concerns the target T5, human SIRPγ extracellular domain + His-tag (NP_061026.2) (human, UniProt Q9P1W8 29-360).
T5 construct: also called hSIRPγ; HuSIRPγ
Briefly: SPR, Ab captured, ECD-His analyte. As to the method: as §1, §2
(Surface plasmon resonance follows binding to a sensor surface in real time, without labels.)
Regarding B6, the binding result is “no binding (tested: 1000 nM)”.
Same read-out and setting: the value for B7 was “no binding (tested: 1000 nM)”; that for B8 was “no binding (tested: 1000 nM)”; that for B9 was “no binding (tested: 1000 nM)”.
On the same count and under the same terms, next, B10: “no binding (tested: 1000 nM)”.
Same read-out and setting: next, B11: “no binding (tested: 1000 nM)”.

The next experiment has as its target T6, human SIRPαV2 extracellular domain + His-tag (CAA71403.1) (human, UniProt P78324 31-373).
T6 construct: also called hSIRPαV2; HuSIRPαV2
Briefly: SPR, Ab captured, ECD-His analyte. Here is the method:
as §1, §2
With B6, the Kd was determined as 1.2 nM.
As for B7, the Kd was 0.775 nM.
Still for that read-out and setting: next, B8: 0.824 nM; B9: 0.63 nM.
B10: the Kd amounted to 0.568 nM.
The same measure, in the same setting: the value for B11 was 1.93 nM.

For a further experiment, the target named is T7, human SIRPαV1 extracellular domain + His-tag (NP_542970.1) (human, UniProt P78324 31-373).
T7 construct: also called hSIRPαV1; HuSIRPαV1
The experiment is described as follows: SPR, Ab captured, ECD-His analyte. As to the method:
as §1, §2
Turning to B6, the Kd came to 1.23 nM.
The same measure, in the same setting: the value for B7 was 0.964 nM; that for B8 was 0.988 nM; that for B9 was 0.723 nM.
The same measure, in the same setting: the value for B10 was 1.41 nM; that for B11 was 2.15 nM.

The next experiment has as its target T2, cynomolgus SIRPβ1 (XP_005568598) …. The experiment is described as follows: SPR. Here is the method:
as §1, §2
B1: the binding result is “no binding (tested: 1000 nM)”.
The same measure, in the same setting: the value for B2 was “no binding (tested: 1000 nM)”; that for B3 was “no binding (tested: 1000 nM)”.
Regarding B4, the binding result is “no binding (tested: 1000 nM)”.
Consider B5, for which the binding result is “no binding (tested: 1000 nM)”.

For the next experiment, the target named is T3, cynomolgus SIRPα (EGM_02252) …. Briefly: SPR. As to the method:
as §1, §2
B1: the binding result is “no binding (tested: 1000 nM)”.
Turning to B2, the binding result is recorded as “no binding (tested: 1000 nM)”.
Same read-out and setting: the value for B3 was “no binding (tested: 1000 nM)”; that for B4 was “no binding (tested: 1000 nM)”; that for B5 was “no binding (tested: 1000 nM)”.

A further experiment has as its target T4, cynomolgus SIRPγ (XP_005568591) …. Briefly: SPR. Here is the method:
as §1, §2
For B1, the binding result is on record as “no binding (tested: 1000 nM)”.
Same read-out and setting: the value for B2 was “no binding (tested: 1000 nM)”; that for B3 was “no binding (tested: 1000 nM)”.
On the same count and under the same terms, the value for B4 was “no binding (tested: 1000 nM)”.
Still for that read-out and setting: the value for B5 was “no binding (tested: 1000 nM)”.

A further experiment addresses T8, Human SIRPαV1 (NP_542970.1), Extracellular Domain + His-Tag (human, UniProt P78324 31-373).
T8 construct: also called huSIRPαV1; hSIRPαV1; not shown: His-Tag
The experiment is described as follows: SPR, antibody captured on Protein A/G, ECD-His analyte, 1:1 fit. Here is the method: (§3) The binding kinetics of anti-SIRPα antibodies to various SIRPα analytes are determined by surface plasmon resonance (SPR) using a Biacore 8K+(Cytiva). 1×HBS-EP+(Cytiva) is used as running buffer and for all the dilutions unless stated otherwise. The Series S CM5 sensorchip is activated with a 1:1 mixture of 0.1 M NHS (N-hydroxysuccinimide) and 0.4 M EDC (1-Ethyl-3-(3-dimethylaminopropyl) carbodiimide hydrochloride) for 420 seconds at a flow rate of 10 μl/min and immobilized with Protein A/G (Thermo Scientific, 10 μg/ml in 10 mM acetate pH 4.5) for 420 seconds at a flowrate of 10 μl/min resulting in approximately 3000 RU of Protein A/G on the surface. The sensorchip is then deactivated with 1 M ethanolamine HCl pH 8.5 for 420 seconds at a flowrate of 10 μl/min.
(§4) Antibodies (approximately 1 ug/ml) are captured on the Protein A/G surface for 60 seconds at a flowrate of 10 μl/min resulting in capture levels of approximately 240 RU. Dilutions of each SIRP protein (Extracellular Domain+His-Tag, with the concentrations as indicated) are injected as analytes over the captured antibody for 300 seconds of association at a flowrate of 30 μl/min, followed by a dissociation for 600 seconds.
(§5) The above procedures are used to measure binding properties of antibodies of the present disclosure. For each analyte used, the highest concentration was as indicated in Example 3 (see Table 36).
For B12, the Kd was found to be 0.43 nM.

The target of the next experiment is T9, Human SIRPαV2 (CAA71403.1), Extracellular Domain + His-Tag (human, UniProt P78324 31-373).
T9 construct: also called huSIRPαV2; hSIRPαV2; not shown: His-Tag
Described as above. Here is the method: as §3, §4, §5
Take B12: the Kd is 0.33 nM.
